Kd and Vmax data for 1 molecule are collected here from patent publication US9551711B2, “Compositions and methods for detecting nitration of PKG-1α and methods of use thereof” (Augusta University Research Institute, Inc., priority 2013, dated 2017).

In data set [1] the target is PKG-1α. Nature of the data set: [3H]cGMP binding assay on immunopurified PKG-1α. More on the design: species or system human. The conditions noted are these: [3H]cGMP 0-200 nM, 100 ng immunopurified enzyme; average affinity of the two cGMP-binding sites; + SIN1 = cells exposed to SIN-1 500 μM, 30 min. As to the method: HEK-293T cells were transiently transfected with either the WT-PKG-1α or the Y247FPKG-1α cDNA using Effectene transfection reagent (Qiagen), according to the manufacturer's instructions. Briefly, the cells were split the day before the transfection to low cell densities (25%) and were transfected 24 h later. After 48 h of transfection, the cells were incubated in DMEM serum free media containing 1% FBS and antibiotics for 4 h and then treated with or without SIN-1 (500 μM), for 30 min. This method produced an approximate 70% transfection efficiency of HEK-293T cells, as measured using green fluorescent protein vectors. […]
The batches of supernatant were pooled, and 2 μg of anti-PKG-1α antibody per mg of protein were added to the extract and rocked at 4° C. […] After 15 min of agitation at 4° C., the beads were pelleted by centrifugation, and the supernatant containing the PKG-1α protein was collected, quantified using Bradford reagent, and stored at −80° C.
To assay the binding of cGMP to WT- and Y247F-PKG-1α the enzymes were saturated with cGMP by incubating 50 μl aliquots of the diluted PKG constructs for 60 min at room temperature with 50 μl of [^3H]cGMP and 150 μl of cGMP-binding assay mixture (25 mM K2HPO4, 25 mM KH2PO4, 1 mM EDTA, pH 6.8, 2M NaCl, 200 μM 3-isobutyl-1-methylxanthine). […] The dissociation constant (Kd) values were determined using GraphPad Prism graphics. […]

In data set [2] the test system is PKG-1α. In words: PKG catalytic activity, Michaelis-Menten kinetics for cGMP. The format is biochemical, human. To be noted: ATP 125 μM, cGMP 0-10 μM; + SIN1 = SIN-1 500 μM, 30 min. As to the method: Total PKG activity was determined using a non-radioactive immunoassay in cell lysates, according to the manufacturer's directions. Briefly, protein samples were diluted in kinase reaction buffer containing Mg^2+ and ATP (125 μM) in the presence or absence of 8-Br cGMP (10 μM) and incubated in a 96 well plate pre-coated with a PKG substrate containing threonine residues phosphorylated by PKG.
After incubation for 30 min at 30° C. to allow the phosphorylation of the bound substrate, an HRP conjugated anti-phosphothreonine specific antibody was added to convert a chromogenic substrate to a colorimetric substrate that was subsequently read spectrophotometrically at 450 nm. The change in absorbance reflected the relative activity of PKG in the sample. The results were reported as pmols of phosphate incorporated into the GST-G substrate fusion protein by active PKG in the sample in the presence or absence of cGMP (10 μM) per minute at 30° C. per μg of protein (pmol/min/μg). […] The kinetic constants were determined using nonlinear regression (curve fit) analysis (GraphPad Prism Software Inc.).
To determine the Michaelis-Menten constant (Km) for cGMP, the kinase assay was performed, as mentioned above; however, the cGMP concentration was titrated from 0-10 μM, while the ATP concentration remained constant at 125 μM.

Non-standard residues stand in square brackets, D forms with d. Tyr(3-NO2) = N[C@@H](Cc1ccc(O)c([N+](=O)[O-])c1)C(=O)O

B1: WT-PKG-1α + SIN1: WT-PKG-1α immunopurified from cells exposed to SIN-1 (500 μM, 30 min) (protein)
chain: SELEEDFAKILMLKEERIKELEKRLSEKEEEIQELKRKLHKCQSVLPVPSTHIGPRTTRAQGISAEPQTYRSFHDLRQAFRKFTKSERSKDLIKEAILDNDFMKNLELSQIQEIVDCMYPVEYGKDSCIIKEGDVGSLVYVMEDGKVEVTKEGVKLCTMGPGKVFGELAILYNCTRTATVKTLVNVKLWAIDRQCFQTIMMRTGLIKHTEYMEFLKSVPTFQSLPEEILSKLADVLEETHYENGE[Tyr(3-NO2)]IIRQGARGDTFFIISKGTVNVTREDSPSEDPVFLRTLGKGDWFGEKALQGEDVRTANVIAAEAVTCLVIDRDSFKHLIGGLDDVSNKAYEDAEAKAKYEAEAAFFANLKLSDFNIIDTLGVGGFGRVELVQLKSEESKTFAMKILKKRHIVDTRQQEHIRSEKQIMQGAHSDFIVRLYRTFKDSKYLYMLMEACLGGELWTILRDRGSFEDSTTRFYTACVVEAFAYLHSKGIIYRDLKPENLILDHRGYAKLVDFGFAKKIGFGKKTWTFCGTPEYVAPEIILNKGHDISADYWSLGILMYELLTGSPPFSGPDPMKTYNIILRGIDMIEFPKKIAKNAANLIKKLCRDNPSERLGNLKNGVKDIQKHKWFEGFNWEGLRKGTLTPPIIPSVASPTDTSNFDSFPEDNDEPPPDDNSGWDIDF
As to B1, the Kd on PKG-1α [1] stood at 32.1 ± 5.5 nM. Also, the Vmax in the data set with PKG-1α [2] was 0.28 ± 0.01 pmol/min/µg.
